Source: publication doi:10.1101/2024.02.01.578502 (bioRxiv, 2024)
Blank lines part the entries; values can stand above or below the molecule they belong to.

Experiments:
Test in all cases: cryo-EM structure
[1] = target: dihydrolipoyl transacetylase (E2) (porcine (endogenous in porcine heart mitochondria))
[2] = target: dihydrolipoamide dehydrogenase-binding protein (E3BP) (porcine (endogenous in porcine heart mitochondria))
cryo-EM structure = target: the molecule itself

stoichiometry N [1]: 60
Molecule: dihydrolipoyl transacetylase (E2) (enzyme)

N, LD per E1 heterotetramer [1]: 1
N, PSBD per E1 heterotetramer [1]: 1
percent of E1 heterotetramers with additional density (LD) [1]: 82%
ratio of E1 with LD bound to E1 without LD bound [1]: 4.5 times
Molecule: pyruvate dehydrogenase (E1) α2β2 heterotetramer (from UniProt P29804 31-390) (complex)

stoichiometry N [2]: 1
B1: dihydrolipoyl dehydrogenase (E3) dimer (enzyme, UniProt P09623 36-509, looked up)
chain: ADQPIDADVTVIGSGPGGYVAAIKAAQLGFKTVCIEKNETLGGTCLNVGCIPSKALLNNSHYYHMAHGKDFASRGIEMSEVRLNLEKMMEQKSNAVKALTGGIAHLFKQNKVVRVNGYGKITGKNQVTATKADGSTEVINTKNILIATGSEVTPFPGITIDEDTVVSSTGALSLKKVPEKMVVIGAGVIGVELGSVWQRLGADVTAVELLGHVGGIGIDMEVSKNFQRILQKQGFKFKLNTKVIGATKKSDGNIDVSIEAASGGKAEVITCDVLLVCIGRRPFTQNLGLEELGIELDPRGRIPVNTRFQTKIPNIYAIGDVVAGPMLAHKAEDEGIICVEGMAGGAVHIDYNCVPSVIYTHPEVAWVGKSEEQLKEEGIEYKVGKFPFAANSRAKTNADTDGMVKILGQKSTDRVLGAHIIGPGAGEMINEAALALEYGASCEDIARVCHAHPTLSEAFREANLAASFGKAINF
stoichiometry N (cryo-EM structure): 2
